From article PMC9088798, “An Approach to Derive Functional Peptide Inhibitors of Transcription Factor Activity” (JACS Au, 2022)

How the values were obtained:
cJun bZIP domain [1] = target: cJun bZIP domain (UniProt P05412)
cJun bZIP domain [2] = target: cJun bZIP domain (UniProt P05412); test: circular dichroism thermal denaturation; loss of CD signal at 222 nm with temperature; total peptide 10 μM, equimolar components
cJun bZIP domain [3] = target: cJun bZIP domain (UniProt P05412); test: ITC; antagonist peptide injected into cJun; single-site binding model
cJun bZIP domain [4] = target: cJun bZIP domain (UniProt P05412); test: circular dichroism spectra; CD spectra at 20 °C; heterodimeric sample compared with the average of the component spectra; total peptide 10 μM, equimolar components
cJun bZIP domain [5] = target: cJun bZIP domain (UniProt P05412); remark: listed apart in the source
cJun bZIP domain [6] = target: cJun bZIP domain (UniProt P05412); remark: listed apart in the source

cJun bZIP domain, sequence (P05412 252-315): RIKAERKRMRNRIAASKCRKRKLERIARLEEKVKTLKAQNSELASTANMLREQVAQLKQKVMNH

| Substance | IC50 of reversal of the TRE DNA CD peak shift at ~281 nm; blocks cJun binding to TRE DNA (cJun bZIP domain [1]) [µM] | Tm of the heterodimer (cJun bZIP domain [2]) [°C] | IC50 of reversal of the TRE DNA CD peak shift at ~281 nm (cJun 20 μM, TRE DNA 5 μM); blocks cJun binding to TRE DNA (cJun bZIP domain [1]) [µM] | Kd (cJun bZIP domain [3]) [µM] | dH (cJun bZIP domain [3]) [kcal/mol] | stoichiometry N (cJun bZIP domain [3]) | ΔTm of the heterodimer against the average of the component denaturation profiles (cJun bZIP domain [2]) [°C] | increase in α-helical content over the average of the component spectra (cJun bZIP domain [4]) [%] | TBS assay in E. coli: colony numbers relative to TRE-mDHFR only (removal of the cJun transcriptional block) (cJun bZIP domain [5]) [%] | IC50 of restoration of the free TRE DNA band in EMSA (cJun bZIP 20 μM, TRE DNA 2 μM); blocks cJun binding to TRE DNA (cJun bZIP domain [6]) [µM] |
| --- | --- | --- | --- | --- | --- | --- | --- | --- | --- | --- |
| FosW (designed binder) | 120 | 54 |  |  |  |  |  |  |  |  |
| A-FosW (designed binder) |  | 69.9 | 16 | 0.0883 | -36.5 | 1.04 | 27.5 | 39 | 60 | 12.1 |
